Our source for the IC50, percent reduction of sclerostin binding to BMP-6 and Kd values is US20120321636A1 (UCB, published 2012).

T1: sclerostin (Homo sapiens (Human), UniProt Q9BQB4 24-213)
T1 construct: also called SOST; Beer
T1 sequence: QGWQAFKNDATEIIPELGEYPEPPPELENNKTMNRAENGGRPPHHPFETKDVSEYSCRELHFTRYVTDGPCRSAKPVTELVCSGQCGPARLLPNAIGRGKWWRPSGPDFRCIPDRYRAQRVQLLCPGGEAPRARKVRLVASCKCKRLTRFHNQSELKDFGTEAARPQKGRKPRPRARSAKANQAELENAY

B1: DAN (ligand)
chain: AAPPPINKLALFPDKSAWCEAKNITQIVGHSGCEAKSIQNRACLGQCFSYSVPNTFPQSTESLVHCDSCMPAQSMWEIVTLECPGHEEVPRVDKLVEKILHCSCQACGKEPSHEGLSVYVQGEDGPGSQPGTHPHPHPHPHPGGQTPEPEDPPGAPHTEEEGAED
B2: BMP-6 (ligand, UniProt P22004 382-513, looked up)
chain: QQSRNRSTQSQDVARVSSASDYNSSELKTACRKHELYVSFQDLGWQDWIIAPKGYAANYCDGECSFPLNAHMNATNHAIVQTLVHLMNPEYVPKPCCAPTKLNAISVLYFDDNSNVILKKYRNMVVRACGCH
notes: also called bone morphogenic protein 6
B3: BMP receptor II-FC fusion protein (Fc fusion, not shown: a dimerising Fc or GST; small tags and cut ends)
chain: SQNQERLCAFKDPYQQDLGIGESRISHENGTILCSKGSTCYGLWEKSKGDINLVKQGCWSHIGDPQECHYEECVVTTTPPSIQNGTYRFCCCSTDLCNVNFTENFPPPDTTPLSPPHSFNRDET
notes: also called BMPR-II

In assay [1] the target is B2. Kind of assay: ELISA-based competition: receptor-Fc against coated sclerostin for BMP-6 (11 nM). Background: An ELISA detects its analyte on a solid surface through an enzyme-linked reagent.
The target of assay [2] is B2. Kind of assay: ELISA-based competition: 10-fold molar excess of receptor-Fc against coated sclerostin for BMP-6.
The target in assay [3] is B2. Kind of assay: ELISA-based competition: DAN against coated sclerostin for BMP-6.
Assay [4] deals with T1, sclerostin. Kind of assay: ELISA, BMP-6 on a sclerostin-coated surface (300 ng/well). How it is done: (§1) A 10-fold molar excess of the BMP receptor was sufficient to reduce binding of sclerostin to BMP-6 by approximately 50%. This competition was also observed with a BMP receptor II-FC fusion protein (IC₅₀=36 nM) and DAN (IC₅₀=43 nM).
The target in assay [5] is B2. The assay can be described thus: ELISA-based competition: receptor-Fc against coated sclerostin for BMP-6. Here is the method:
as §1

A word on the IC50: it is the concentration that gives 50% inhibition. A higher IC50 goes with weaker potency in that assay. Take BMP receptor IA (FC fusion construct): in assay [1], the IC50 turned out to be 114 nM. In assay [2], this molecule gave a percent reduction of sclerostin binding to BMP-6 at 10-fold molar excess of 50%.
In turn, B1 showed a 50% inhibitory concentration (IC50) in assay [3] of 43 nM.
A word on the Kd: it is the constant that tells how readily two partners part at equilibrium. The molecule B2 gave a Kd in assay [4] of 3.4 nM.
Consider B3, for which the IC50 in assay [5] turned out to be 36 nM.
